Data set [1] is described as follows: Stability of pHLIP ICG formulations in solution (analytical HPLC). The class given is physicochemical. The note with it: protected from light. On the procedure:
Stability studies were performed with pHLIP ICG formulations in PBS and PBS containing 5% DMSO or 5% Ethanol (vol/vol). The tumor targeting capability in mice is independent of formulation. Formulation of pHLIP ICG in PBS/5% Ethanol was used in PoC animal studies, and in toxicity studies on mice, rats and dogs. For the PBS/5%DMSO formulation 1 mg of the lyophilized powder of pHLIP ICG was dissolved in 75 µl of DMSO (to make 3.2 mM solution), then 10 µl of 3.2 mM stock was mixed with 190 µl PBS to make a 0.16 mM solution of pHLIP ICG (5% DMSO). For the PBS/5%Ethanol formulation, the lyophilized powder of pHLIP ICG was dissolved at a concentration of 1.6 mg/ml in PBS/5% Ethanol solution. Finally, the formulation selected for human use was prepared by dissolving the lyophilized powder of pHLIP ICG at a concentration of 0.8 mg/ml in PBS. All formulations were kept at room temperature and protected from light. The aliquots were taken at 0.5 or 1, 3, 6, 24, 48 and 72 hours (102 hrs for pHLIP ICG dissolved in PBS) for analytical HPLC analysis using a Zorbax SB-C18 column (4.6 x 250 mm, 5 µm) with a binary solvent system using a […] water and acetonitrile gradient with 0.05% TFA over 25 min. […] Formulation of pHLIP ICG in PBS was stable in solution for 4 days kept at RT.

In data set [2] the test system is Salmonella typhimurium strains (TA1535, TA1537, TA98, TA100 and TA102). The data set is described as follows: In vitro bacterial reverse mutation test. The class given is cell-based. The note with it: up to 5000 µg/plate, with and without S9 mix. As for the experimental part:
The objective of this study performed at CRL was to determine the potential genotoxicity of pHLIP ICG using the bacterial reverse mutation test.
Salmonella typhimurium strains (TA1535, TA1537, TA98, TA100 and TA102) were treated with pHLIP ICG at a range of concentrations up to 5000 µg/plate (the standard limit dose for this assay), in the presence and absence of a supplemented rat liver fraction (S9 mix), using the plate incorporation version of the bacterial reverse mutation test.
Bacteria were incubated with standard positive controls, and the response of the various bacterial strains to these agents confirmed the sensitivity of the test system and the activity of the S9 mix.

The nature of data set [3]: Pharmacological safety assessment on the central nervous system (FOB) in rats (GLP). In kind it is in vivo, Sprague Dawley rats. The following applies: single i.v. bolus 0.218, 0.248, 3.72 and 7.44 mg/kg, up to 24 h post-dose. On the procedure:
The objective of this GLP study performed at CRL was to evaluate the pharmacological effects of pHLIP ICG on the central nervous system following a single i.v. bolus injection in rats.
Functional observation battery (FOB) tests were performed once prior to dosing and again at 5 minutes, 3 and 24 hours post-dose and included the following assessments: palpebral closure, eye prominence, pupil size, pupillary response, lacrimation, salivation, body tone, extensor thrust, pinna reflex, tactile reflex, overall animal reactivity, auricular startle, air righting reflex, body temperature (rectal). Additional evaluations consisted of mortality and clinical observations.

The nature of data set [4]: Follow up 7-days repeat i.v. toxicity in male B6D2F1 mice (GLP). The class given is in vivo. On the procedure: The purpose of this GLP study performed at MSK was to assess the acute and delayed toxicity on the male reproductive system of mice of a repeat administration of pHLIP ICG at different concentrations. The pHLIP ICG was administered once/day for 7 consecutive days.
Throughout the study, body weights, clinical signs, and histopathology were collected.

A short description of data set [5]: Cardiovascular telemetry study in conscious Beagle dogs (GLP). In kind it is in vivo. The note with it: male dogs, single i.v. bolus 0.072, 0.36, 1.44 mg/kg, up to 24 h post-dose. On the procedure: The objective of this GLP study performed at CRL was to evaluate the potential cardiovascular effects of pHLIP ICG in instrumented dogs when administered by i.v. bolus injection using a Latin square design.
Each of the four male dogs received a dose of Reference Item (5 % Ethanol in Phosphate buffered saline (PBS), pH of 7.4 ± 0.2) and three dose levels of pHLIP ICG (0.072, 0.36, and 1.44 mg/kg), with a 7-day washout period between each dose. The dose was administered by i.v. bolus injection at a dose volume of 2.5 mL/kg.
The following cardiovascular parameters were evaluated for all animals from 2 hours prior and up to 24 hours post each dose: systemic blood pressures (systolic, diastolic, mean arterial, and pulse pressure), heart rate, body temperature, and electrocardiographic duration/intervals (PR, QRS, QT, and QTc). Qualitative evaluation of the electrocardiographic waveforms was performed twice prior to each dose (at least 30 minutes apart) and at 5, 15, and 30 minutes, 1, 2, 3, 4, 6, 12, and 24 hours post-dose. Additional evaluations consisted of mortality and clinical observations. There were no mortalities or pHLIP ICG related clinical signs throughout the course of the study.

Data set [6] in a line: Local tolerance/irritancy in New Zealand white rabbits (GLP). The following applies: single 0.124 and 1.86 mg/kg, i.v., intra-arterial, perivenous and subcutaneous. The class given is in vivo. As for the experimental part:
The objective of this GLP study performed at CRL was to compare the i.v., intra-arterial, perivascular and subcutaneous routes for potential irritation following a single injection of pHLIP ICG in the rabbits.
The following parameters and end points were evaluated in this study: clinical signs, local irritation assessment, body weights (for dose calculation only), and histopathology of the injection sites. There were no clinical signs, local irritation or any microscopic changes associated with pHLIP ICG during the study.

Data set [7] is described as follows: Peripheral blood micronucleus test in rats (GLP). The class given is in vivo, Sprague Dawley rats. As for the experimental part:
The objective of this GLP study performed at CRL was to determine the potential genotoxicity of pHLIP ICG when given by i.v. bolus injection to rats using the peripheral blood micronucleus test.
In order to determine the maximum tolerated dose, a dose-range finding test was performed prior to the main test, where male and female rats (3 animals/sex) were administered a single dose of pHLIP ICG by i.v. injection. The doses evaluated were 14 mg/kg and 25 mg/kg using 5% EtOH in PBS, pH 7.4 as the vehicle.
Blood was collected for micronuclei evaluation at 45 hours post-dose (Groups 3 to 7), and 69 hours post-dose (Groups 3 and 7). The proportion of immature erythrocytes among total erythrocytes in the peripheral blood (%RETs) and the percentage of micronucleated reticulocytes (%MN-RETs) in the NC group were within the laboratory historical negative control range. […] The results from both NC and PC groups confirmed the validity of the assay.

The mark [8] stands for this setting: male rats, single i.v. 6.25, 12.5 and 25 mg/kg.

“Also recorded” adds a separate entry of the source. Peptide text beside a SMILES is read from it. * marks the point of attachment. X1 = CC1(C)C(/C=C/C=C/C=C/C=C2/N(CCCCCC(=O)NCCN3C(=O)CC(*)C3=O)c3ccc4ccccc4c3C2(C)C)=[N+](CCCCS(=O)(=O)[O-])c2ccc3ccccc3c21

From paper PMC7591906, “pHLIP ICG for delineation of tumors and blood flow during fluorescence-guided surgery” (Scientific Reports, 2020) come the findings set out here.

Take `CC(C)C[C@H](NC(=O)[C@H](Cc1ccc(O)cc1)NC(=O)[C@H](C)NC(=O)[C@H](CCCNC(=N)N)NC(=O)[C@H](Cc1c[nH]c2ccccc12)NC(=O)[C@@H]1CCCN1C(=O)[C@H](CC(N)=O)NC(=O)[C@H](CCC(N)=O)NC(=O)[C@H](CC(=O)O)NC(=O)[C@H](CC(=O)O)NC(=O)[C@H](CSC1CC(=O)N(CCNC(=O)CCCCCN2/C(=C/C=C/C=C/C=C/C3=[N+](CCCCS(=O)(=O)[O-])c4ccc5ccccc5c4C3(C)C)C(C)(C)c3c2ccc2ccccc32)C1=O)NC(=O)[C@H](C)N)C(=O)N[C@@H](CC(=O)O)C(=O)N[C@@H](CC(C)C)C(=O)N[C@@H](CC(C)C)C(=O)N[C@@H](Cc1ccccc1)C(=O)N1CCC[C@H]1C(=O)N[C@H](C(=O)N[C@@H](CC(=O)O)C(=O)N[C@H](C(=O)N[C@@H](CC(C)C)C(=O)N[C@@H](CC(C)C)C(=O)N[C@@H](CC(C)C)C(=O)N[C@@H](CC(=O)O)C(=O)N[C@@H](CC(C)C)C(=O)N[C@@H](CC(C)C)C(=O)N[C@@H](Cc1c[nH]c2ccccc12)C(=O)N[C@@H](C)C(=O)O)[C@@H](C)O)[C@@H](C)O` (stereo partly drawn) [pHLIP ICG] (H-AC(X1)DDQNPWRAYLDLLFPTDTLLLDLLWA-OH): in data set [1] (PBS, PBS/5% DMSO, PBS/5% Ethanol, up to 72 hours at room temperature, analytical HPLC), the “Stability (purity) of all formulations” value is given as over 95%. In addition, in data set [1] (reconstituted in PBS (0.8 mg/ml), room temperature, analytical HPLC Zorbax SB-C18), the “Time stable in solution” value is on record as 4 days. In addition, the “Toxicity to the bacteria” value in data set [2] is “non-toxic to the bacteria at the levels tested”. Further, the “Mutagenicity, revertant colonies” value in data set [2] (plate incorporation) is recorded as “did not show any evidence of genotoxic activity; also recorded: negative for the induction of mutagenicity”. Besides, in data set [3], the “Effect on the central nervous system (FOB)” value is recorded as “had no observed effect on the central nervous system”. The “Toxicity finding, male reproductive system” value in data set [4] (male B6D2F1 mice, 4.92, 7.38, 12.3 mg/kg/day i.v. for 7 days) is listed as “well tolerated, with no indication of germ cell degeneration or other toxicity to the male reproductive system”. Further, the NOAEL entry in data set [4] (male and female mice, 7 days repeated i.v. administration) is given as “above 12.3 mg/kg/day”. The Cardiovascular effects entry in data set [5] was “no observable effect on systemic blood pressures, heart rate, body temperature, electrocardiographic intervals; also recorded: no effect on systemic blood pressures, heart rate, body temperature, electrocardiographic intervals, or qualitative ECG parameters”. Further, the Local tolerance entry in data set [6] is “well tolerated; also recorded: well-tolerated and did not result in any pHLIP ICG-related changes”. In data set [7] (setting [8]), the “Genotoxic activity (%MN-RETs)” value was “did not induce cytogenetic damage; also recorded: showed no evidence of genotoxic activity” and the “Reduction in %RETs (cytotoxicity)” value is given as “No substantial reduction”. For the same compound, in data set [7] (rats 3 animals/sex, single i.v. 14 mg/kg and 25 mg/kg), the “Clinical signs in dose-range finding test” value was “no adverse clinical signs were noted”.
